Patent publication US20250171549A1 (Amgen, published 2025)
Blank lines part the entries; values can stand above or below the binder they belong to. Where no end group is shown, it is not given here.

Key:
[1] = target: T1, Peptide 1 (biotinylated N-terminus CCR8 peptide, amino acids 1-12) (human, also: biotinylated, position not given here); assay: flow cytometry, biotinylated peptide on streptavidin beads
T1 construct: Captured on streptavidin polystyrene beads
T1 peptide: MDYTLDLSVTTV
Description: (§1) The biotinylated human CCR8 peptides were captured on streptavidin polystyrene beads (Spherotech) in FACS buffer (PBS+2% Fetal Bovine Serum) at a final protein concentration of 50-100 ng/ml and incubated for 30 minutes at room temperature. Beads were washed twice with FACS buffer to remove unbound protein, centrifuged to pellet the beads, and resuspended and pooled together in StabilGuard (SurModics). The pooled biotinylated human CCR8 coated beads were added to hybridoma supernatant samples in a 96-well plate, such that the final antibody concentration was 5.0 μg/mL, and then incubated for one hour at room temperature.
(§2) Plates were washed twice with FACS buffer, centrifuged to pellet the beads, and supernatant was removed and resuspended in FACS buffer to remove unbound antibodies. Alexa Fluor 488 goat anti-human or rat IgG (Fcγ fragment specific) secondary antibodies (Jackson ImmunoResearch) made up in FACS buffer at 5.0 μg/mL were added to each well, resuspended with beads and incubated for 15 minutes at room temperature. Plates were washed twice with FACS buffer, centrifuged to pellet the beads, and supernatant was removed and resuspended in FACS buffer to remove unbound secondary antibodies. Samples were then resuspended in FACS buffer and read on either IntelliCyt® iQue Flow Cytometer.
(§3) Data are represented as a ratio of geometric mean binding to beads coated with specific peptide divided by geometric mean of binding to a bead coated with a negative control peptide (peptide with unrelated sequence). A value above two represents presence of binding.

[2] = target: T2, Peptide 5 (biotinylated N-terminus CCR8 peptide, amino acids 25-35) (human, also: biotinylated, position not given here); assay: as above
T2 construct: Captured on streptavidin polystyrene beads
T2 peptide: CDAELIQTNGK
Description: as §1, §2, §3

[3] = target: T3, Peptide 2 (biotinylated N-terminus CCR8 peptide, amino acids 7-18) (human, also: biotinylated, position not given here); assay: as above
T3 construct: Captured on streptavidin polystyrene beads
T3 peptide: LSVTTVTDYYYP
Description: as §1, §2, §3

[4] = target: T4, Peptide 4 (biotinylated N-terminus CCR8 peptide, amino acids 19-30) (human, also: biotinylated, position not given here); assay: as above
T4 construct: Captured on streptavidin polystyrene beads
T4 peptide: DIFSSPCDAELI
Description: as §1, §2, §3

[5] = target: T5, Peptide 3 (biotinylated N-terminus CCR8 peptide, amino acids 13-24) (human, also: biotinylated, position not given here); assay: flow cytometry, biotinylated peptide on streptavidin beads, antibody 5 ug/mL
T5 construct: Captured on streptavidin polystyrene beads
T5 peptide: TDYYYPDIFSSP
Description: as §1
as §2, with “Cytometer. […]” for “Cytometer.”

[6] = target: T5, Peptide 3 (biotinylated N-terminus CCR8 …); assay: flow cytometry, biotinylated peptide on streptavidin beads
Description: as §1, §2, §3

[7] = target: T1, Peptide 1 (biotinylated N-terminus CCR8 …); assay: flow cytometry, biotinylated peptide on streptavidin beads, antibody 5 ug/mL
Description: as §1
as §2, with “Cytometer. […]” for “Cytometer.”

[8] = target: T6, cynomolgus monkey CCR8 (comprising threonine at position four) (cynomolgus monkey, UniProt O97665 1-356 (rhesus entry)); assay: KinExA, 293T cells expressing cynomolgus CCR8
T6 construct: also called Cyno CCR8; cynomolgus CCR8
T6 sequence (O97665 other isoform, or with tags, fused parts or gaps): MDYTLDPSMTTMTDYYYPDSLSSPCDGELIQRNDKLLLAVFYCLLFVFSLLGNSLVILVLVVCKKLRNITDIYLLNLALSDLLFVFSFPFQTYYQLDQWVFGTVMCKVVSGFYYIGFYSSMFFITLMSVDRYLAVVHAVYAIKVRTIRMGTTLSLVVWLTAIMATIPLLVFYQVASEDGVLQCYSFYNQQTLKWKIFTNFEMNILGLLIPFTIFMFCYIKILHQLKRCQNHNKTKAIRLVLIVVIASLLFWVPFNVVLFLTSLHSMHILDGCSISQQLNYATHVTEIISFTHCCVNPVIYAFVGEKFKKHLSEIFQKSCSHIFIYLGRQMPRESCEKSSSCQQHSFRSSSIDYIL
Description: For each equilibrium set, reference point controls included a sample with cell media only and a sample without cells. The equilibrium sets were incubated for 24 hours at room temperature, with shaking. After 24 hours of incubation, the supernatants were separated from the cell pellets via centrifugation at 500×g for five minutes. The supernatants of both high [Ab] and low [Ab] equilibrium sets were then run through a KinExA 3200 machine.
Each equilibrium sample set was read in duplicate on the KinExA machine. For low [Ab] equilibrium samples, 6.8 mL and 4.6 mL of each sample were run in duplicate, respectively, for human and cyno CCR8 equilibrium experiments. For high [Ab] equilibrium samples 16 μL and 75 μL of each sample were run in duplicate, respectively for human and cyno CCR8 equilibrium experiments.
For each equilibrium sample the free [Ab] was detected by running the equilibrium samples through the coated beads followed by a quick wash with the running buffer (1×PBS pH7.4+1% BSA+0.05% Sodium Azide). The secondary detection antibody (goat anti-huIgG (H+L) Alexa 647) was run through the flow cell at 680 ng/ml and 500 μL per run. The KinExA voltage output signal was used in KinExA software to calculate the Kd. […]

binding result [1]: no binding | binding result [2]: no binding | binding result [3]: no binding | binding result [4]: no binding | ratio of geometric mean, peptide bead / negative control peptide bead [5]: 157
B1: Antibody 2 IgG2 (antibody, V domains shown)
VH: QVQLVESGGGVVQPGRSLRLSCAASGFTFSNYGMHWVRQAPGKGLEWVAVISYDGSNKFYADSVKGRFTISRDNSKKTLYLQMSSLRVEDTAVYYCARAGGIGRFDYWGQGTLVTVSS
VL: DFVMTQTPLSLSVTPGQPASISCKYSQSLLHSDGKTYLFWYLQKPGQPPHLLIYEVSNRFSGVPDRFSGSGSGTDFTLKISRVEAEDVGLYYCMQTLKLPLTFGGGTKVEINR
notes: IgG2; tested as hybridoma supernatant

binding result [6]: no binding | binding result [2]: no binding | binding result [3]: no binding | binding result [4]: no binding | ratio of geometric mean, peptide bead / negative control peptide bead [7]: 3 | Kd [8]: 0.229 nM
B2: Antibody 1 IgG2 (antibody)
heavy: EVQLVESGGGLVKPGGSLRLSCAASGFTFSNARMGWVRQAPGKGLEWVGRIKSKTEGGTRDYAAPVKGRFTISRDDSKNTLYLQMNSLKTEDTAVYYCTSYSGVWGQGTMVTVSSASTKGPSVFPLAPCSRSTSESTAALGCLVKDYFPEPVTVSWNSGALTSGVHTFPAVLQSSGLYSLSSVVTVPSSNFGTQTYTCNVDHKPSNTKVDKTVERKCCVECPPCPAPPVAGPSVFLFPPKPKDTLMISRTPEVTCVVVDVSHEDPEVQFNWYVDGVEVHNAKTKPREEQFNSTFRVVSVLTVVHQDWLNGKEYKCKVSNKGLPAPIEKTISKTKGQPREPQVYTLPPSREEMTKNQVSLTCLVKGFYPSDIAVEWESNGQPENNYKTTPPMLDSDGSFFLYSKLTVDKSRWQQGNVFSCSVMHEALHNHYTQKSLSLSPGK
light: not shown
notes: as for B1
